Here are results for one variant from article PMC11714219.

Sequences and labels used below:
B1: Estrogen receptor alpha, full length, ECFP-tagged, as in the ER βα FL biosensors with the linker [not stated] / Estrogen receptor beta (ER β), full length, mNeonGreen-tagged, as in the ER βα FL FRET biosensor [not stated] (parent)
chain 1: MTMTLHTKASGMALLHQIQGNELEPLNRPQLKIPLERPLGEVYLDSSKPAVYNYPEGAAYEFNAAAAANAQVYGQTGLPYGPGSEAAAFGSNGLGGFPPLNSVSPSPLMLLHPPPQLSPFLQPHGQQVPYYLENEPSGYTVREAGPPAFYRPNSDNRRQGGRERLASTNDKGSMAMESAKETRYCAVCNDYASGYHYGVWSCEGCKAFFKRSIQGHNDYMCPATNQCTIDKNRRKSCQACRLRKCYEVGMMKGGIRKDRRGGRMLKHKRQRDDGEGRGEVGSAGDMRAANLWPSPLMIKRSKKNSLALSLTADQMVSALLDAEPPILYSEYDPTRPFSEASMMGLLTNLADRELVHMINWAKRVPGFVDLTLHDQVHLLECAWLEILMIGLVWRSMEHPGKLLFAPNLLLDRNQGKCVEGMVEIFDMLLATSSRFRMMNLQGEEFVCLKSIILLNSGVYTFLSSTLKSLEEKDHIHRVLDKITDTLIHLMAKAGLTLQQQHQRLAQLLLILSHIRHMSNKGMEHLYSMKCKNVVPLYDLLLEMLDAHRLHAPTSRGGASVEETDQSHLATAGSTSSHSLQKYYITGEAEGFPATV
chain 2: MDIKNSPSSLNSPSSYNCSQSILPLEHGSIYIPSSYVDSHHEYPAMTFYSPAVMNYSIPSNVTNLEGGPGRQTTSPNVLWPTPGHLSPLVVHRQLSHLYAEPQKSPWCEARSLEHTLPVNRETLKRKVSGNRCASPVTGPGSKRDAHFCAVCSDYASGYHYGVWSCEGCKAFFKRSIQGHNDYICPATNQCTIDKNRRKSCQACRLRKCYEVGMVKCGSRRERCGYRLVRRQRSADEQLHCAGKAKRSGGHAPRVRELLLDALSPEQLVLTLLEAEPPHVLISRPSAPFTEASMMMSLTKLADKELVHMISWAKKIPGFVELSLFDQVRLLESCWMEVLMMGLMWRSIDHPGKLIFAPDLVLDRDEGKCVEGILEIFDMLLATTSRFRELKLQHKEYLCVKAMILLNSSMYPLVTATQDADSSRKLAHLLNAVTDALVWVIAKSGISSQQQSMRLANLLMLLSHVRHASNKGMEHLLNMKCKNVVPVYDLLLEMLNAHVLRGCKSSITGSECSPAEDSKSKEGSQNPQSQ

The variants in the assay derive from B1. The assay can be described thus: live-cell FRET biosensor imaging (ER βα heterodimerization, FRET/ECFP emission ratio). The conditions noted are these: with Estrogen receptor beta (ER β), 1 µM 17β-estradiol, value read at the end of the time course (30 min after E2), α mutant n = 12, WT n = 24, read off a plot, scale: R/R0.
Turning to chain 1 MTMTLHTKASGMALLHQIQGNELEPLNRPQLKIPLERPLGEVYLDSSKPAVYNYPEGAAYEFNAAAAANAQVYGQTGLPYGPGSEAAAFGSNGLGGFPPLNSVSPSPLMLLHPPPQLSPFLQPHGQQVPYYLENEPSGYTVREAGPPAFYRPNSDNRRQGGRERLASTNDKGSMAMESAKETRYCAVCNDYASGYHYGVWSCEGCKAFFKRSIQGHNDYMCPATNQCTIDKNRRKSCQACRLRKCYEVGMMKGGIRKDRRGGRMLKHKRQRDDGEGRGEVGSAGDMRAANLWPSPLMIKRSKKNSLALSLTADQMVSALLDAEPPILYSEYDPTRPFSEASMMGLLTNLADRELVHMINWAKRVPGFVDLTLHDQVHLLECAWLEILMIGLVWRSMEHPGKLLFAPNLLLDRNQGKCVEGMVEIFDMLLATSSRFRMMNLQGEEFVCLKSIILLNSGVYTFLSSTLKSLEEKDHIHRVLDKITDTLIHLMAKAGLTLQQQHQRLAQRLLILSHIRHMSNKGMEHLYSMKCKNVVPLYDLLLEMLDAHRLHAPTSRGGASVEETDQSHLATAGSTSSHSLQKYYITGEAEGFPATV [chain 1 L507R], the response came to 1.07.
